# Source: article PMC10636607 (2023)
# Numbering of substitutions follows the chain as printed. Names and notes keep the numbering of the source. Like-named read-outs stand apart in the source and are kept apart here.
# T1: biotinylated C-terminal αTSR domain of P. falciparum circumsporozoite protein (P. falciparum, UniProt Q7K740 310-375, biotinylated)
# T1 chain: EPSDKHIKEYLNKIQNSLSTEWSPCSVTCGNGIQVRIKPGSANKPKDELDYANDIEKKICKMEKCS
# T2: biotinylated SARS-CoV-2 fusion peptide (SARS-CoV-2, biotin on the N-terminus)
# T2 peptide: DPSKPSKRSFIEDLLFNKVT
# B1: Fab234 (WT) (Fab, V domains shown)
# VH: EVQLVESGGGLVKPGGSLRLSCAASGFNFSTHIMNWVRQAPGKGLEWVSSISSSGTYIYYADSMKGRFTISRDNPKNSLYLQMNSLRAEDTAVYYCARARGFIQFHYYMDVWGKGTTVAVSS
# VL: SYVLTQPPSVSVAPGKTARITCGGNNIGSKSVHWHQQRPGQAPVLVVYDDKIRPSGIPERFSGSNSGNTATLIISRVEAGDEADYYCQVWHSSSDPVVFGGGTKLTVL
# B2: 5J8 Fab (WT) (Fab, V domains shown)
# VH: EVQLVESGPGLVKPSDILSLTCAVSGYSISSNYYWGWIRQPPGKGLEWIGSIYHSGSTYYKPSLESRLGISVDTSKNQFSLKLSFVSAADTAVYYCARHVRSGYPDTAYYFDKWGQGTLVTVSS
# VL: SYVLTQPPSVSVAPGETARISCGGNNIGTKVLHWYQQTPGQAPVLVVYDDSDRPSGIPERFSGSNSGNTATLTISRVEVGDEADYYCQVWDISTDQAVFGGGTKLTVL
# B3: GAR12 Fab (WT) (Fab, V domains shown)
# VH: EVQLVQSGGGLVQPGGSLRLSCAASGFTFSSYAMSWVRQAPGKGLEWVLSISGSGGSTYYADSVKGRFTISIDNSKKTVYLQMNSLRAEDTAVYYCAKSGEQQLVQAEYFHHWGQGTLVTVSS
# VL: DIQMTQSPSTLSASVGDRVTITCRASQSIGRWLAWYQQKPGKAPKLLIYDASSLESGVPSRFSGSGFGTEFTLTISSLQPDDFATYYCQQCDSLLTFGGGTKLEIK
# B4: GAR12 Fab VL D50K (Fab, V domains shown)
# VH: B3 VH
# VL: B3 VL with D50K
# B5: COV44-62 Fab (WT) (Fab, V domains shown)
# VH: QMQLMQSGAEVKKPGASVTVSCKASGDTFSDYRIHWVRQAPGQGLEWMGRMNPKSGDTNFAQKFQGRVTMTRDMSINTAYMTLSGLTFDDTALYYCASLLIVGGFDPLDDFEVWGQGTMVTISS
# VL: QSALTQPPSASGSPGQSVTISCSGTSSDVGGYNFVSWYQHHPGKAPKILIYEVTKRPSGVPDRFSGSKSGNTASLTVSGLQAEDEADYYCSSYGGTNNLLFGGGTKLTVL
# B6: HC84.26.5D Fab (WT) (Fab, V domains shown)
# VH: VQPVQSGAEVKKPGSSVKVSCEASGGTHSNYVITWVRQAPGQGLEWMGGFIPDFRTAMYAQGFQGRVTITADESTSLAYMELTNLRSEDTAVYYCARGPLSRGYYDYWGPGTLVTVSS
# VL: YVLTQPPSVSVAPGQTASITCSGDKLGDKYVSWYQQRPGQSPVLVLYQDSKRPSGIPERFSGSNSGNTATLTISGTQAMDEADYYCQAWDSSALVFGGGTKLTVL
# B7: 4E10 Fab (WT) (Fab, V domains shown)
# VH: QVQLVQSGAEVKRPGSSVTVSCKASGGSFSTYALSWVRQAPGRGLEWMGGVIPLLTITNYAPRFQGRITITADRSTSTAYLELNSLRPEDTAVYYCAREGTTGWGWLGKPIGAFAHWGQGTLVTVSS
# VL: EIVLTQSPGTQSLSPGERATLSCRASQSVGNNKLAWYQQRPGQAPRLLIYGASSRPSGVADRFSGSGSGTDFTLTISRLEPEDFAVYYCQQYGQSLSTFGQGTKVEVK
# B8: 3E1 Fab (WT) (Fab, V domains shown)
# VH: QVQLQESGPGLVKPSETLSLTCSVSGASISSYYWIWIRQPAGKGLEWIGRFYTSGSPNYNPSLRSRVTMSVDTSKNQFSLKLTSVTAADTAVYYCAREEHITFGGVIVRYWGQGTLVTVSP
# VL: DIQMTQSPATLSASVGDRVSITCRASQSISSWLAWYQQKPGKAPKLLIYKASSLESGVPSRFSGSGSGSEFTLTISSLQPDDFAIYYCQQYNSYPWTFGQGTKVEIK
# Experiments:
# Test in all cases: BLI
# [1] = target: T1, biotinylated C-terminal αTSR domain of …
# [2] = target: T3, biotinylated influenza hemagglutinin (HA) from H1N1 A/California/07/2009 (influenza A virus H1N1 …)
# [3] = target: His6-tagged SARS-CoV-2 receptor-binding domain (SARS-CoV-2, UniProt P0DTC2 319-541)
# [4] = target: T2, biotinylated SARS-CoV-2 fusion peptide
# [5] = target: HCV (isolate H77) E2 domain protein (hepatitis C virus (isolate H77))
# [6] = target: His-tagged HIV Env MPER peptide (HIV)
# [7] = target: T3, biotinylated influenza hemagglutinin …; remark: listed apart in the source
binder,measurement,setting,value
B1,Kd,[1],0.2 nM
B2,Kd,[2],4 nM
B3,Kd,[3],3.5 nM
B4,Kd,[3],153 nM
B5,Kd,[4],26 nM
B6,Kd,[5],0.9 nM
B7,Kd,[6],9.1 nM
B8,Kd,[7],6.9 nM
